In article PMC8467750 one finds Emax of histamine (mini-G recruitment) and pEC50 of histamine (mini-G recruitment) data, which are given here for three substances.

Assay [1] has as its target histamine H4 receptor fused C-terminally to the small fragment of NanoLuc (H4R–NlucC) (human) (UniProt Q9H3N8). In words: split reporter (BiFC, NanoBiT); split-NanoLuc mini-G protein recruitment assay in live HEK293T cells transiently co-expressing receptor–NlucC and NlucN–mini-G; recruitment upon histamine (serial dilutions), 37 °C, L-15 medium with 10 mM HEPES, furimazine; AUC of 45 min traces normalised to 100 µM histamine in the canonical system (H2R–mGs or H4R–mGsi, 100%) and L-15 (0%); N = 3, each in triplicate.

Assay [2] deals with histamine H2 receptor fused C-terminally to the small fragment of NanoLuc (H2R–NlucC) (human) (UniProt P25021). The assay is described as above.
UniProt P25021, sequence (P25021 whole entry, the tested form may be a part): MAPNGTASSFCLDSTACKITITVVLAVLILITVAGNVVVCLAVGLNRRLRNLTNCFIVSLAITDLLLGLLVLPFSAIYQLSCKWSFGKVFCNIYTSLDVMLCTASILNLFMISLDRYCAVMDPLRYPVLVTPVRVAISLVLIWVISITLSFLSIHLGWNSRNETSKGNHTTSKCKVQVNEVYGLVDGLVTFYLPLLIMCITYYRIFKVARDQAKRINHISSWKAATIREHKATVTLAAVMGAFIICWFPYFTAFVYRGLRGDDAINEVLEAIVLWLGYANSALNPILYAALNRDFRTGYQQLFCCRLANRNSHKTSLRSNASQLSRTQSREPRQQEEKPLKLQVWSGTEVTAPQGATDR

UniProt Q9H3N8, sequence (Q9H3N8 whole entry, the tested form may be a part): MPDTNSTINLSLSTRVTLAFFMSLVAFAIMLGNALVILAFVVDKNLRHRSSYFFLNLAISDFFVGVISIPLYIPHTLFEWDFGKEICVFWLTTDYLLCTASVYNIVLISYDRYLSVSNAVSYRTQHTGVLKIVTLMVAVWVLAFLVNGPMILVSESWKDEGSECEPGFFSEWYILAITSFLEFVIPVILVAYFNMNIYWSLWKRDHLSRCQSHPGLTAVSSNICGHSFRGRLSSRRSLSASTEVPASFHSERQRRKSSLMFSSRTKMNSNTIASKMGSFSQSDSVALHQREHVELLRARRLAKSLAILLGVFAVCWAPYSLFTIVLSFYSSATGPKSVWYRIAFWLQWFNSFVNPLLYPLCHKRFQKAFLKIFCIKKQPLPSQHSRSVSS

Regarding “mini-G protein mGsq fused N-terminally to the large fragment of NanoLuc (NlucN–mGsq)”, the Emax of histamine (mini-G recruitment) in assay [1] turned out to be 13.8%. Besides, in assay [2], the Emax of histamine (mini-G recruitment) turned out to be 29.6% and the pEC50 of histamine (mini-G recruitment) was 5.48.
On to “mini-G protein mGs fused N-terminally to the large fragment of NanoLuc (NlucN–mGs)”, for which the Emax of histamine (mini-G recruitment) is -13.5% in assay [1] and 100% in assay [2]. In assay [2], this substance showed a pEC50 of histamine (mini-G recruitment) of 6.86.
On to “mini-G protein mGsi fused N-terminally to the large fragment of NanoLuc (NlucN–mGsi)”, for which, in assay [1], the Emax of histamine (mini-G recruitment) turned out to be 100% and the pEC50 of histamine (mini-G recruitment) came to 6.6. Moreover, in assay [2], the Emax of histamine (mini-G recruitment) is 26.8% and the pEC50 of histamine (mini-G recruitment) was 5.3.
